Sequences and labels used below:
B2: CYLD USP domain (aa 583–956) (domain or fragment, human, UniProt Q9NQC7 583-956, looked up)
chain: GLEIMIGKKKGIQGHYNSCYLDSTLFCLFAFSSVLDTVLLRPKEKNDVEYYSETQELLRTEIVNPLRIYGYVCATKIMKLRKILEKVEAASGFTSEEKDPEEFLNILFHHILRVEPLLKIRSAGQKVQDCYFYQIFMEKNEKVGVPTIQQLLEWSFINSNLKFAEAPSCLIIQMPRFGKDFKLFKKIFPSLELNITDLLEDTPRQCRICGGLAMYECRECYDDPDISAGKIKQFCKTCNTQVHLHPKRLNHKYNPVSLPKDLPDWDWRHGCIPCQNMELFAVLCIETSHYVAFVKYGKDDSAWLFFDSMADRDGGQNGFNIPQVTPCPEVGEYLKMSLEDLHSLDSRRIQGCARRLLCDAYMCMYQSPTMSLYK
notes: Dimer by SEC-MALS (86 kDa); also called intact CYLD USP domain; source: Sf9 insect cells, purified (as described in Komander et al., 2008)
B3: SPATA2 PUB domain (aa 1–241) (domain or fragment, UniProt Q9UM82 1-241, looked up)
chain: MGKPSSMDTKFKDDLFRKYVQFHESKVDTTTSRQRPGSDECLRVAASTLLSLHKVDPFYRFRLIQFYEVVESSLRSLSSSSLRALHGAFSMLETVGINLFLYPWKKEFRSIKTYTGPFVYYVKSTLLEEDIRAILSCMGYTPELGTAYKLRELVETLQVKMVSFELFLAKVECEQMLEIHSQVKDKGYSELDIVSERKSSAEDVRGCSDALRRRAEGREHLTASMSRVALQKSASERAAKD
notes: Spermatogenesis-associated protein 2 (SPATA2), PUB domain, residues 1-241, 27.6 kDa as printed; Monomer by SEC-MALS; also called SPATA2 PUB domain (1–241); source: E. coli, purified (as described in Elliott et al., 2014)
B4: CYLD USP domain I790D (domain or fragment, human)
chain: GLEIMIGKKKGIQGHYNSCYLDSTLFCLFAFSSVLDTVLLRPKEKNDVEYYSETQELLRTEIVNPLRIYGYVCATKIMKLRKILEKVEAASGFTSEEKDPEEFLNILFHHILRVEPLLKIRSAGQKVQDCYFYQIFMEKNEKVGVPTIQQLLEWSFINSNLKFAEAPSCLIIQMPRFGKDFKLFKKIFPSLELNITDLLEDTPRQCRDCGGLAMYECRECYDDPDISAGKIKQFCKTCNTQVHLHPKRLNHKYNPVSLPKDLPDWDWRHGCIPCQNMELFAVLCIETSHYVAFVKYGKDDSAWLFFDSMADRDGGQNGFNIPQVTPCPEVGEYLKMSLEDLHSLDSRRIQGCARRLLCDAYMCMYQSPTMSLYK
notes: CYLD, human, USP domain with I790D, 44 kDa observed; Monomer by SEC-MALS; Limits of the mutant are not restated; parent is m1; also called CYLD I790D; I790D dimerization mutant; source: Sf9 insect cells, purified (as described in Komander et al., 2008)
B5: SPATA2 (aa 7–356) (domain or fragment, UniProt Q9UM82 7-356, looked up)
chain: MDTKFKDDLFRKYVQFHESKVDTTTSRQRPGSDECLRVAASTLLSLHKVDPFYRFRLIQFYEVVESSLRSLSSSSLRALHGAFSMLETVGINLFLYPWKKEFRSIKTYTGPFVYYVKSTLLEEDIRAILSCMGYTPELGTAYKLRELVETLQVKMVSFELFLAKVECEQMLEIHSQVKDKGYSELDIVSERKSSAEDVRGCSDALRRRAEGREHLTASMSRVALQKSASERAAKDYYKPRVTKPSRSVDAYDSYWESRKPPLKASLSLRKEPVATDVGDDLKDEIIRPSPSLLTMASSPHGSPDVLPPASPSNGPALLRGTYFSTQDDVDLYTDSEPRATYRRQDALRPD
notes: also called extended SPATA2 fragment; source: E. coli, purified (as described in Elliott et al., 2014)

Data set [1] concerns the molecule itself. Put plainly: SEC-MALS; Superdex 75 size-exclusion column; CYLD and SPATA2 PUB variants alone and mixed. In general terms: SEC sorts molecules by how far they enter the pores of the column.
Data set [2] addresses B3. Put plainly: cell-based or functional assay.
Data set [3] concerns the target B3. The experiment in a line: SEC-MALS; Superdex 75 size-exclusion column; CYLD and SPATA2 PUB variants alone and mixed. As to conditions: both partners purified.
In data set [4] the target is B5. Put plainly: SEC-MALS; Superdex 200 column; purified SPATA2 (aa 7–356), HOIP PUB (aa 1–184) and CYLD alone and mixed. As to conditions: both partners purified.
Data set [5] has as its target B2. Put plainly: SPR; fraction of CYLD variant bound to SPATA2 PUB against varying CYLD concentrations; kinetic and equilibrium fits. The settings on record: both partners purified.
Data set [6] has as its target B4. Described as above. The settings on record: both partners purified.
For data set [7], the target named is T1, HOIP PUB domain (aa 1–184) (UniProt Q96EP0 1-184).
T1 construct: HOIP (RNF31), PUB domain, residues 1-184; The construct used in the pull-down, NMR and FP experiments is called only 'HOIP PUB domain'; also called HOIP PUB domain (1–184); source: E. coli, purified (as described in Elliott et al., 2014)
T1 sequence (looked up): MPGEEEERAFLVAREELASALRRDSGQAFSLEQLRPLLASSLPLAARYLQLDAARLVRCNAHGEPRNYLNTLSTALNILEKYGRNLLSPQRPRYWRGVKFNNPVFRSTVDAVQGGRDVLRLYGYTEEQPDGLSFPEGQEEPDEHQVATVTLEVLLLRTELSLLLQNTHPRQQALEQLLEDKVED
The experiment in a line: SEC-MALS; Superdex 200 column; purified SPATA2 (aa 7–356), HOIP PUB (aa 1–184) and CYLD alone and mixed. As to conditions: both partners purified.

Data set [8] has as its target T2, HOIP PUB domain (HOIP 5–180, crystal structure) (UniProt Q96EP0 5-180).
T2 construct: 5–180 may be the modelled residues of the 1–184 construct; source: E. coli, purified (as described in Elliott et al., 2014)
T2 sequence (looked up): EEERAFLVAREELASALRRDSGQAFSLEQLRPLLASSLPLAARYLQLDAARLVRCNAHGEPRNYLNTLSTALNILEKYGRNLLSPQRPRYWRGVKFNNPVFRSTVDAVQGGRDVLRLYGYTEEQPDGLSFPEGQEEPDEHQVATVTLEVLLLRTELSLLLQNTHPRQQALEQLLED
Put plainly: crystal structure; HOIP PUB domain with SPATA2 PIM peptide (aa 334–344), 2.7 Å, space group P43, two complexes in the asymmetric unit. As to conditions: both partners purified.

B1: CYLD B-box domain (aa 778–855) (domain or fragment, human, UniProt Q9NQC7 778-855, looked up)
chain: TDLLEDTPRQCRICGGLAMYECRECYDDPDISAGKIKQFCKTCNTQVHLHPKRLNHKYNPVSLPKDLPDWDWRHGCIP
modifications: 15N-labelled in the NMR titration
notes: CYLD, human, B-box domain, residues 778-855, 9.1 kDa as printed; Dimer by SEC-MALS (17.1 kDa); also called isolated B-box domain
For B1, the “stoichiometry N” value in data set [1] was found to be 2.
Turning to B2, the “kcat/KM of CYLD for fluorescent Met1/Lys63-linked diUb substrates, with against without SPATA2” value in data set [2] is about 2 fold. For the same molecule, the “stoichiometry N” value is 1 CYLD USP per SPATA2 PUB (2:2) in data set [3], 2 in data set [1] and 1 CYLD per SPATA2 (2:2:2 with HOIP PUB) in data set [4].
For the molecule B3, the Kd (as a rule, the free concentration of one partner at which half of the binding sites on the other are occupied at equilibrium, for simple one-to-one binding) in data set [5] is 96 nM; in data set [6], 518 nM.
For the molecule B4, the “stoichiometry N” value in data set [3] was 1 CYLD USP I790D per SPATA2 PUB (1:1).
Turning to B5, the “stoichiometry N” value in data set [7] was 1 SPATA2 per HOIP PUB (1:1).

B6: SPATA2 PIM peptide (aa 334–344) (peptide, UniProt Q9UM82 334-344, looked up)
peptide: DVDLYTDSEPR
notes: SPATA2, peptide spanning the PIM (Asp-Leu-Tyr-Thr, residues 336-339), residues 334-344; also called SPATA2 334–344
For B6, in data set [8], the binding result is recorded as “binds”.

(Values after publication PMC5031558, “SPATA2 Links CYLD to LUBAC, Activates CYLD, and Controls LUBAC Signaling” (Molecular Cell, 2016).)
